The text below walks through data of US20080009021A1.

The target in the assay is E3 His-ROC1/Cul1 complex (UniProt Q13616). In words: cell-based or functional assay.

With Flag-ubiquitin moiety, the amount of E3 giving maximum attachment of ubiquitin moiety to E3 (luminescence, nickel plate) (ng per 100 µl) was in the range of 200 to 300.
